# Reference: US20160289305A1
# Tests used:
# [1] = target: JR-CSF gp120 N276A (HIV-1) (UniProt P20871); assay: cell-based or functional assay
# [2] = target: ΔRSC3; assay: method not given
# [3] = target: JR-CSF gp120 D279A (HIV-1) (UniProt P20871); assay: cell-based or functional assay
substance,measurement,setting,value
VRC01 (antibody),"neutralization potency, JR-CSF pseudovirus",[1],4 fold
VRC-PG04b (antibody),fold less binding than to RSC3,[2],> 100 fold
VRC-PG-04 (antibody),"neutralization potency compared to wildtype, JRCSF pseudovirus entry",[3],< 10%
